Data reported in patent US20240270866A1 (Alector, published 2024).

T1: Mouse SIRPA D1 Fc (mouse, UniProt P97797 32-150, limits assumed)
T1 sequence: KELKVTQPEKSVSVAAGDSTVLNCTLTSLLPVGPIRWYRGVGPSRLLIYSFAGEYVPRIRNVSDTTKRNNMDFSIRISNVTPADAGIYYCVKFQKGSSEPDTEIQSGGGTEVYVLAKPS

T2: mouse SIRPA overexpressed on CHO cells (mouse, UniProt P97797 32-513)
T2 construct: also called CHO-muSIRPA
T2 sequence: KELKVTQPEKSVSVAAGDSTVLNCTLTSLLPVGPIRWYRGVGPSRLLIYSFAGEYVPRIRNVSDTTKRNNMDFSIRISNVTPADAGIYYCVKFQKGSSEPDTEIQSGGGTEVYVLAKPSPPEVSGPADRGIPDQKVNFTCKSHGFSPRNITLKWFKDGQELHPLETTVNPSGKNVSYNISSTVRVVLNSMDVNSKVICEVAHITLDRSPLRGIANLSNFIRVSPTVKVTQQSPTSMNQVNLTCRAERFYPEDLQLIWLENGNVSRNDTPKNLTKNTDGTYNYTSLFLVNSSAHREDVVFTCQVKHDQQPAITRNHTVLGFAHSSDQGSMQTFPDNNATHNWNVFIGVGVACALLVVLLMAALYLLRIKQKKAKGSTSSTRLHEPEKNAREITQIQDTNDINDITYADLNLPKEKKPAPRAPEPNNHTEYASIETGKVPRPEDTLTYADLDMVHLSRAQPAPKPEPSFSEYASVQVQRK


Legend:
Mouse SIRPA D1 Fc = target: T1, Mouse SIRPA D1 Fc; experiment: ForteBio IgG avid;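 note: antibody IgG captured on AHQ biosensors, then 100 nM Fc-fused SIRP antigen applied for 3 min, followed by 3 min buffer dissociation, kinetics fitted to a 1:1 model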
Human SIRPb D1 Fc = Human SIRPb D1 Fc (human, UniProt O00241 30-148, limits assumed); experiment: ForteBio IgG avid;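 note: antibody IgG captured on AHQ biosensors, then 100 nM Fc-fused SIRP antigen applied for 3 min, followed by 3 min buffer dissociation, kinetics fitted to a 1:1 model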
Chain of Human SIRPb D1 Fc (O00241 30-148 limits assumed): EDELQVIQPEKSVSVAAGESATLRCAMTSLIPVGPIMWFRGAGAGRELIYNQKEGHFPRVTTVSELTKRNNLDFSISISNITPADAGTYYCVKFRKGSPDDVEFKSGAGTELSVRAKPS

Human SIRPA D1 Fc = target: T3, Human SIRPA D1 Fc (human, UniProt P78324 32-137); experiment: ForteBio IgG avid;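 note: antibody IgG captured on AHQ biosensors, then 100 nM Fc-fused SIRP antigen applied for 3 min, followed by 3 min buffer dissociation, kinetics fitted to a 1:1 model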
T3 construct: not shown: human IgG1 Fc

[1] = target: T2, mouse SIRPA overexpressed on CHO cells; experiment: flow, CHO-muSIRPA;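 for relative MFI: antibody binding measured by flow cytometry: cells stained with 1 ug/ml test antibody for 1 h on ice, detected with PE-labelled secondary antibody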
[2] = target: T4, human SIRPA overexpressed on CHO cells (human, UniProt P78324 31-504); experiment: flow, CHO-huSIRPA;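 note: Anti-SIRPA antibodies applied at 1 µg/mL for 1 h on ice, binding read by flow cytometry using a PE-labelled secondary antibody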
T4 construct: also called CHO-huSIRPA
Experimental: Initial characterization of anti-SIRPA antibodies of the present disclosure involved determining their ability to bind cell lines overexpressing human or mouse SIRPA. Cells were harvested, plated at 10⁶/ml in a 96 well plate, washed, and incubated in 100 ul PBS containing 1 ug/ml Mab for 1 hour in ice. Cells were then washed twice and incubated in 100 ul PBS containing 5 ug/ml PE-conjugated secondary antibody for 30 minutes in ice. Cells were washed twice in cold PBS and acquired on a BD FACS Canto. Data analysis and calculation of mean fluorescence intensity (MFI) values or % positive cells was performed with FlowJo® (TreeStar) software version 10.0.7.

[3] = target: T2, mouse SIRPA overexpressed on CHO cells; experiment: flow, CHO-muSIRPA; remark: listed apart in the source;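 for relative MFI: antibody binding measured by flow cytometry: cells stained with 1 ug/ml test antibody for 1 h on ice, detected with PE-labelled secondary antibody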

Row | binding result (Mouse SIRPA D1 Fc) | binding result (Human SIRPb D1 Fc) | Kd (Human SIRPA D1 Fc) [nM] | relative MFI [1] [fold over background] | relative MFI [2] [fold over background] | binding result [3] | binding result (Human SIRPA D1 Fc) | Binder
1 | no binding (tested: 100 nM) | no binding (tested: 100 nM) | 13 | 0.548 | 52 | no binding (tested: 1 ug/ml) |  | SA-12 (antibody, V domains shown, IgG) VH: QVQLVQSGAEVKKPGASVKVSCKASGYTFTSYYIHWVRQAPGQGLEWMGIINPSGGSTSYAQKFQGRVTMTRDTSTSTVYMELSSLRSEDTAVYYCARAPGSWFYWGQGTLVTVSS VL: EIVLTQSPATLSLSPGERATLSCRASQSVSSYLAWYQQKPGQAPRLLIYDASNRATGIPARFSGSGSGTDFTLTISSLEPEDFAVYYCQQRTNFPITFGGGTKVEIK
2 | no binding (tested: 100 nM) | no binding (tested: 100 nM) | 13.8 | 0.574 | 1.1 | no binding (tested: 1 ug/ml) |  | SA-26 (antibody, V domains shown, IgG) VH: QVQLQQWGAGLLKPSETLSLTCAVYGGSFSGYYWSWIRQPPGKGLEWIGEIDHSGSTNYNPSLKSRVTISVDTSKNQFSLKLSSVTAADTAVYYCARDRLDGSLGIYGMDVWGQGTTVTVSS VL: DIQMTQSPSSLSASVGDRVTITCRASQSINSYLNWYQQKPGKAPKLLIYAASSLQSGVPSRFSGSGSGTDFTLTISSLQPEDFATYYCQQSPSDPWTFGGGTKVEIK
3 | no binding (tested: 100 nM) | no binding (tested: 100 nM) | 4.43 | 0.619 | 0.722 | no binding (tested: 1 ug/ml) |  | SA-27 (antibody, V domains shown, IgG) VH: QLQLQESGPGLVKPSETLSLTCTVSGGSISSSSYYWGWIRQPPGKGLEWIGSIYYSGSTYYNPSLKSRVTISVDTSKNQFSLKLSSVTAADTAVYYCARDSDKVALDLWGRGTLVTVSS VL: not shown
4 | no binding (tested: 100 nM) | no binding (tested: 100 nM) | 22 | 0.619 | 1.39 | no binding (tested: 1 ug/ml) |  | SA-22 (antibody, V domains shown, IgG) VH: EVQLVESGGGLVKPGGSLRLSCAASGFTFSSYSMNWVRQAPGKGLEWVSSISSSSSYIYYADSVKGRFTISRDNAKNSLYLQMNSLRAEDTAVYYCARDPTDSSSYYDVWGQGTLVTVSS VL: not shown
5 | no binding (tested: 100 nM) | no binding (tested: 100 nM) | 31 | 0.732 | 24.4 | no binding (tested: 1 ug/ml) |  | SA-14 (antibody, V domains shown, IgG) VH: EVQLVESGGGLVKPGGSLRLSCAASGFTFSSYSMNWVRQAPGKGLEWVSSISSSSSYIYYADSVKGRFTISRDNAKNSLYLQMNSLRAEDTAVYYCARDGSMYYGDPMDVWGQGTTVTVSS VL: DIQLTQSPSSLSASVGDRVTITCQASQDISNFLNWYQQKPGKAPKLLIYDASNLETGVPSRFSGSGSGTDFTFTISSLQPEDIAKYYCQQFINFPLTFGGGTKVEIK
6 |  |  | 38 | 0.533 | 21.1 |  |  | SA-23 (antibody, V domains shown, IgG) VH: QVQLVQSGAEVKKPGASVKVSCKASGYTFTSYGISWVRQAPGQGLEWMGWISTYNGNTNYAQKLQGRVTMTTDTSTSTAYMELRSLRSDDTAVYYCARDQGTGTTVDLDLWGRGTLVTVSS VL: not shown
7 | no binding (tested: 100 nM) |  |  | 0.601 |  | no binding (tested: 1 ug/ml) | binds | SA-19 (antibody, V domains shown, IgG; also called SA-19 (parental)) VH: QVQLVESGGGVVQPGRSLRLSCAASGFTFSSYGMHWVRQAPGKGLEWVAVISYDGSNKYYADSVKGRFTISRDNSKNTLYLQMNSLRAEDTAVYYCARDLTKYTLGFAFDIWGQGTMVTVSS VL: not shown
8 | no binding (tested: 100 nM) | no binding (tested: 100 nM) | 24.2 | 0.586 | 8.27 | no binding (tested: 1 ug/ml) |  | SA-25 (antibody, V domains shown, IgG) VH: QVQLVQSGAEVKKPGSSVKVSCKASGGTFSSYAISWVRQAPGQGLEWMGSIIPIFGTANYAQKFQGRVTITADESTSTAYMELSSLRSEDTAVYYCARDRGYPRYSYLDLWGRGTLVTVSS VL: not shown
9 | no binding (tested: 100 nM) | no binding (tested: 100 nM) | 6.47 | 0.509 | 12.4 | no binding (tested: 1 ug/ml) |  | SA-31 (antibody, V domains shown, IgG) VH: QVQLVQSGAEVKKPGSSVKVSCKASGGTFSSYAISWVRQAPGQGLEWMGSIIPIFGTANYAQKFQGRVTITADESTSTAYMELSSLRSEDTAVYYCARDRGYPRYSYLDLWGRGTLVTVSS VL: EIVLTQSPGTLSLSPGERATLSCRASQSVSSSYLAWYQQKPGQAPRLLIYGASSRATGIPDRFSGSGSGTDFTLTISRLEPEDFAVYYCQQFFSYPPTFGGGTKVEIK
10 | no binding (tested: 100 nM) | no binding (tested: 100 nM) | 24.4 | 0.685 | 35.4 | no binding (tested: 1 ug/ml) |  | SA-32 (antibody, V domains shown, IgG) VH: not shown VL: EIVMTQSPATLSVSPGERATLSCRASQSVGSNLAWYQQKPGQAPRLLIYGASTRATGIPARFSGSGSGTEFTLTISSLQSEDFAVYYCQQLNVFPWTFGGGTKVEIK
11 | no binding (tested: 100 nM) | no binding (tested: 100 nM) | 4.02 | 0.539 | 0.592 | no binding (tested: 1 ug/ml) |  | SA-16 (antibody, V domains shown, IgG) VH: QVQLQQWGAGLLKPSETLSLTCAVYGGSFSGYYWSWIRQPPGKGLEWIGEIDHSGSTNYNPSLKSRVTISVDTSKNQFSLKLSSVTAADTAVYYCARDLGPPGPHLDVWGQGTMVTVSS VL: not shown
12 | no binding (tested: 100 nM) | no binding (tested: 100 nM) | 6.67 | 0.467 | 0.775 | no binding (tested: 1 ug/ml) |  | SA-28 (antibody, V domains shown, IgG) VH: QVQLQESGPGLVKPSQTLSLTCTVSGGSISSGGYYWSWIRQHPGKGLEWIGNIYYSGSTYYNPSLKSRVTISVDTSKNQFSLKLSSVTAADTAVYYCARDSDTSWGGFDYWGQGTLVTVSS VL: EIVLTQSPGTLSLSPGERATLSCRASQSVRSSYLAWYQQKPGQAPRLLIYGASSRATGIPDRFSGSGSGTDFTLTISRLEPEDFAVYYCQQAGVSPYTFGGGTKVEIK
13 | no binding (tested: 100 nM) | no binding (tested: 100 nM) | 4.55 | 0.479 | 0.595 | no binding (tested: 1 ug/ml) |  | SA-29 (antibody, V domains shown, IgG) VH: QVQLQESGPGLVKPSQTLSLTCTVSGGSISSGGYYWSWIRQHPGKGLEWIGNIYYSGSTYYNPSLKSRVTISVDTSKNQFSLKLSSVTAADTAVYYCARDSDTSWGGFDYWGQGTLVTVSS VL: not shown
